Results reported in the supplement of paper PMC9170038.

Test system: MS2 coat protein
Experiment: apparent KD of MS2 coat protein; designed switch direction (-1 OFF switch, 1 ON switch): -1; higher = weaker reporter binding
In short: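 Transcription of designed RNA switches on Illumina chips was done by stalled E. coli RNA polymerase. SNAP-549-labelled MS2 coat protein was then titrated in doubling steps from 0.7 or 1.5 nM to 3 µM, with steps of 0.8–1.5 h at the lowest and 10–20 min at the highest concentration. The per-design median over clusters of curve-fitted normalised fluorescence is reported as apparent KD.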

[1] = Eterna round: R95, input ligand: microRNA oligo, concentration not stated
[2] = Eterna round: R95, input ligand: FMN 200 uM
[3] = Eterna round: R95, input ligand: none
[4] = input ligand: microRNA oligo, concentration not stated

| Sequence | apparent KD of MS2 coat protein [1] [nM] | apparent KD of MS2 coat protein [2] [nM] | apparent KD of MS2 coat protein [3] [nM] | apparent KD of MS2 coat protein (input ligand: FMN 200 uM) [nM] | apparent KD of MS2 coat protein [4] [nM] | apparent KD of MS2 coat protein (input ligand: none) [nM] |
| --- | --- | --- | --- | --- | --- | --- |
| AUCAUGUAAGGAUAUCUUACAUGUGACGAAAGUCACAGUUAAGAGAAGGUACAUGAGGAUCACCCAUGUAUAAC [Ex4-3: 36] (puzzle: Exclusion 4) | 26.6 |  |  |  |  |  |
| CCGAAUAUGCAGGAUAUCGUAUCGGAAACGAUACGAGAAGGGUAAACAUGAGGAUCACCCAUGUUCCUUAACGG [Fiskers Ex 6 - 18] (puzzle: Exclusion 6) | 17.7 |  |  |  |  |  |
| AUUGAUGUUGAGGAUAUGCAUAUAUUUAUAAAAGCAGAAGGCGAUACAUGAGGAUCACCCAUGUUCAUGGAAGU [JR_E6_Sub094] (puzzle: Exclusion 6) | 35 | 46.7 | 51.3 |  |  |  |
| UAUUAGUGAGGAUAUGGUAUAGAUAAGAUGAUGAAAGAACUCCAGAAGGCACAUGAGGAUCACCCAUGUAGUAG [JL-ex4-2.08 Jieux mod] (puzzle: Exclusion 4) | 23.7 | 20.4 | 20.9 |  |  |  |
| UACAUGAGGAUCACCCAUGUUUUGUCGUGUAUGGUAUUUAUCUAGGAUAUCAAUCUAUUUAUGUAUGAGAAGGAGAAUAUUAAU [JMF's solution 55] (Eterna round: R96, puzzle: Exclusion NG 3) |  |  |  | 42.3 | 28.9 | 41.1 |
| AGGUAGUCAGGAUAUUAGGAGUAGCGGGAUAACGCUACGAGUGAGAAGGGACAUGAGGAUCACCCAUGUUUAUU [JR_Ex4_Sub069] (Eterna round: R97, puzzle: Exclusion 4) |  |  |  | 70.3 |  | 26.8 |
| ACAUCCUUAGUAAGGAUAUCGUCCGCCGAGGCGGGCGAGAAGGUACAUGAGGAUCACCCAUGUAUGCAGCAGAU [Eternabot (L2) Solution 59] (Eterna round: R97, puzzle: Brourd's mod of Exclusion 4) |  |  |  | 19.1 |  | 14 |
| CUAAAUCAUGUAGGAUAUGCGUGGCGAAGCUAUGCAGAAGGACAUGAGGAUCACCCAUGUGCUUCCGUCUGCGUACAGACGGUA [JL ENG1 1.16] (Eterna round: R96, puzzle: Exclusion NG 1) |  |  |  | 136 | 59.7 | 83.3 |
| GGGAAGGGAGGAUAUGAGGAAGAGAACAUGAGGAUCACCCAUGUGAGGCCUCAGGAUCGAUCAGAAGGCCCGAUCC [AK-MS2ROC-r4-exclusion5-15] (Eterna round: R97, puzzle: Exclusion 5) |  |  |  | 297 |  | 142 |
| GGUUAUUGCAAGGAUAUGCUAUUAUUUUAUUUUGCAGAAGGUGCAACAUGAGGAUCACCCAUGUUGGAGGGUUU [JR_E6_Sub024] (puzzle: Exclusion 6) | 17.9 |  |  |  |  |  |
| AGUGGGCGCGUAGGAUAUGAGGAUCACCCAUAGAAGGAUAUCGAAAGAGAAGGUCUGAGGAUUACCCAGAAGGACGGGUUUGUA [pwkr exNG2 2xF5 2xFMN.15] (Eterna round: R96, puzzle: Exclusion NG 2) |  |  |  | 925 | 278 | 232 |
| UGCGGGCUUUUGAGACCUCACAUGAGGAUCACCCAUGUGCUUGUCUUGUGGGUCGGUCGGUCGUUGGCUGGCUGACG [Sensor-V1 #96] (Eterna round: R97, puzzle: Sensor, turn-off variant 1) |  |  |  | 19.2 |  | 19.3 |
| CUUUUGUGAGGAUAUUAGUAGUAAAUGAAUAAAAUUAUUACUAAGAAGGCACAUGAGGAUCACCCAUGUUCCUC [Mat - Exclusion 4 - Eli Mod - D1] (Eterna round: R97, puzzle: Exclusion 4) |  |  |  | 393 |  | 54.4 |
| UGAGCUUGAGGAUAUACAAUGAGCUUGAGAAAUCGAGUUCGACAUGAGGAUCACCCAUGUAGAAGGCGAGUUCG [-37.5, -35.6 kcal, A 28% 1 and 1] (Eterna round: R97, puzzle: Exclusion 2) |  |  |  | 28.1 |  | 17.7 |
| UUGUACCGGUGAGGAUAUCGUUGAUAGAACUUUAUGAUAUACAUGAGGAUCACCCAUGUUACUUUCGAGAAGGCAUCGGAUUAU [ExNG2 6th] (Eterna round: R96, puzzle: Exclusion NG 2) |  |  |  | 12.3 | 10.3 | 21.8 |
| GAACUCGUGAAGGAUAUCCGUACCAAAGCGGCAGGAGAAGGUCACACAUGAGGAUCACCCAUGUGGUACCUCGU [Xeinbira] (puzzle: Exclusion 6) | 27.4 | 80.1 | 25.1 |  |  |  |
| ACAAGCGAAAGGCUCGUCUUAUUUUUGUAGAGGUCCUAAACAUGAGGAUCACCCAUGUAGUGGCGAUGGUGGAGGUA [JR_SV3TOV2_Sub068] (puzzle: Sensor v3, turn-off variant 2) | 134 | 91.2 | 103 |  |  |  |
| AUAAUGUCAGGAUAUCAGACGUACAGCUGCGGCUGUACGUCUGAGAAGGGACAUGAGGAUCACCCAUGUGAUUA [E4/3-A3] (Eterna round: R97, puzzle: Exclusion 4) |  |  |  | 124 |  | 1460 |
| AAGGCGGUAGGAUAUACAUGAGGAUCACCCAUGUACGCGUGGAUCCCUGUGACGUCAAGUAGAAGGGCCAUAAA [Xetesobiar] (Eterna round: R97, puzzle: Exclusion 3) |  |  |  | 27.5 |  | 31.8 |
| UAUUACCUAGGAUAUACAUGAGGAUCACCCAUGUCACGGGUCAACUUGUCCUAUGCGUGUAGAAGGAGGGACCC [JL Ceriza mod 6] (puzzle: Exclusion 3) | 18.9 |  |  |  |  |  |
| UCUAUUUUGCGAGGAUAUCGACCAUUCCUCUUUACAUGAGGAUCACCCAUGUUCUUUUUCUACAACGAGAAGGCGCUCAUAGUU [JR_ExcNG2_Sub062] (Eterna round: R96, puzzle: Exclusion NG 2) |  |  |  | 73.5 | 67.7 | 61.6 |
| GACUAGGGAGGAUAUAUUUACAGUGUACCUCGGAUGAUCGCACUUGAGGAUCACCCAAGUAGAAGGCUCGAGGG [EX2 #28] (Eterna round: R97, puzzle: Exclusion 2) |  |  |  | 30.4 |  | 33.2 |
| GCCAGAGCAGGAUAUCUAUAUUAUCACAUGAGGAUCACCCAUGUCCAGCGAAAGCUGGAGGGAGAAGGGCUCUGGC [Fiskers Ex 5 - 26] (Eterna round: R96, puzzle: Exclusion 5) |  |  |  | 51 | 60.9 | 104 |
| ACCUUACUGGUCAGGAUAUACAGUCUCGGGUGGGUGUAGAAGGGACAUGAGGAUCACCCAUGUAGGUUGCAGCA [alecazam56] (Eterna round: R97, puzzle: Brourd's mod of Exclusion 4) |  |  |  | 100 |  | 156 |
| UUUUUACAUGAGGAUCACCCAUGUCAGGAUAUGCUUAUAUUUUAUUAUUUUAUUUUUUGCAGAAGGGACUAUUA [My solution] (puzzle: Exclusion 1) | 80 |  |  |  |  |  |
| AGAUCUAGGACAGGAUAUAUGGAUGUCUUCAUCGAAGAUGAAGACAUUACAUGAGGAUCACCCAUGUAGAAGGGUCCUAGAUCA [Omei Exc(NG) 2Av3] (Eterna round: R96, puzzle: Exclusion NG 2) |  |  |  | 17.3 | 17.5 | 22.2 |
